According to paper PMC6141585:

Target: actin filaments in growth cones of cultured hippocampal neurons (mouse (endogenous in cultured hippocampal neurons))
Experiment: FRET or BRET; acceptor photobleaching FRET in growth cones of fixed 2 DIV hippocampal neurons; donor GFP or GFP-tagged construct, acceptor TRITC-phalloidin on actin filaments

## MAP6-E-GFP (rat MAP6-E fused to GFP) (from UniProt Q63560 1-614) (natural protein)
  FRET efficiency: 52%
